According to PMC9275217, “Improvement of Fusel Alcohol Production by Engineering of the Yeast Branched-Chain Amino Acid Aminotransaminase” (Applied and Environmental Microbiology, 2022):

B1: Bat1ΔN16^WT (Saccharomyces cerevisiae S288C) (protein)
chain: LATGAPLDASKLKITRNPNPSKPRPNEELVFGQTFTDHMLTIPWSAKEGWGTPHIKPYGNLSLDPSACVFHYAFELFEGLKAYRTPQNTITMFRPDKNMARMNKSAARICLPTFESEELIKLTGKLIEQDKHLVPQGNGYSLYIRPTMIGTSKGLGVGTPSEALLYVITSPVGPYYKTGFKAVRLEATDYATRAWPGGVGDKKLGANYAPCILPQLQAAKRGYQQNLWLFGPEKNITEVGTMNVFFVFLNKVTGKKELVTAPLDGTILEGVTRDSVLTLARDKLDPQEWDINERYYTITEVATRAKQGELLEAFGSGTAAVVSPIKEIGWNNEDIHVPLLPGEQCGALTKQVAQWIADIQYGRVNYGNWSKTVADLN
notes: first 16 residues (mitochondrial-targeting signal) removed; N-terminal His-tag (pET53-dest, tag not reported cut); E. coli BL21(DE3); dimer
B2: Bat1ΔN16^WT (Saccharomyces cerevisiae S288C; G333S) (protein)
chain: LATGAPLDASKLKITRNPNPSKPRPNEELVFGQTFTDHMLTIPWSAKEGWGTPHIKPYGNLSLDPSACVFHYAFELFEGLKAYRTPQNTITMFRPDKNMARMNKSAARICLPTFESEELIKLTGKLIEQDKHLVPQGNGYSLYIRPTMIGTSKGLGVGTPSEALLYVITSPVGPYYKTGFKAVRLEATDYATRAWPGGVGDKKLGANYAPCILPQLQAAKRGYQQNLWLFGPEKNITEVGTMNVFFVFLNKVTGKKELVTAPLDGTILEGVTRDSVLTLARDKLDPQEWDINERYYTITEVATRAKQGELLEAFGSSTAAVVSPIKEIGWNNEDIHVPLLPGEQCGALTKQVAQWIADIQYGRVNYGNWSKTVADLN
notes: as for B1
B3: Bat2^WT (Saccharomyces cerevisiae S288C; G316S) (protein)
chain: MTLAPLDASKVKITTTQHASKPKPNSELVFGKSFTDHMLTAEWTAEKGWGTPEIKPYQNLSLDPSAVVFHYAFELFEGMKAYRTVDNKITMFRPDMNMKRMNKSAQRICLPTFDPEELITLIGKLIQQDKCLVPEGKGYSLYIRPTLIGTTAGLGVSTPDRALLYVICCPVGPYYKTGFKAVRLEATDYATRAWPGGCGDKKLGANYAPCVLPQLQAASRGYQQNLWLFGPNNNITEVGTMNAFFVFKDSKTGKKELVTAPLDGTILEGVTRDSILNLAKERLEPSEWTISERYFTIGEVTERSKNGELLEAFGSSTAAIVSPIKEIGWKGEQINIPLLPGEQTGPLAKEVAQWINGIQYGETEHGNWSRVVTDLN
notes: N-terminal His-tag (pET53-dest, tag not reported cut); E. coli BL21(DE3); dimer
B4: Bat2^WT (Saccharomyces cerevisiae S288C) (protein)
chain: MTLAPLDASKVKITTTQHASKPKPNSELVFGKSFTDHMLTAEWTAEKGWGTPEIKPYQNLSLDPSAVVFHYAFELFEGMKAYRTVDNKITMFRPDMNMKRMNKSAQRICLPTFDPEELITLIGKLIQQDKCLVPEGKGYSLYIRPTLIGTTAGLGVSTPDRALLYVICCPVGPYYKTGFKAVRLEATDYATRAWPGGCGDKKLGANYAPCVLPQLQAASRGYQQNLWLFGPNNNITEVGTMNAFFVFKDSKTGKKELVTAPLDGTILEGVTRDSILNLAKERLEPSEWTISERYFTIGEVTERSKNGELLEAFGSGTAAIVSPIKEIGWKGEQINIPLLPGEQTGPLAKEVAQWINGIQYGETEHGNWSRVVTDLN
notes: as for B3

Tests used:
Bat1ΔN16^WT [1] = molecular target: T1, Bat1ΔN16^WT (Saccharomyces cerevisiae, UniProt P38891); assay: NADH absorbance […] nm, coupled to glutamate dehydrogenase; type: biochemical; conditions: reverse reaction; 2 mM KG, 5 mM NAD+, 50 μM PLP, 200 mM potassium phosphate pH 8.5, 30°C; apparent
T1 construct: gene BAT1; first 16 residues (mitochondrial-targeting signal) removed; N-terminal His-tag (pET53-dest, tag not reported cut); E. coli BL21(DE3); dimer
T1 sequence (P38891 17-393): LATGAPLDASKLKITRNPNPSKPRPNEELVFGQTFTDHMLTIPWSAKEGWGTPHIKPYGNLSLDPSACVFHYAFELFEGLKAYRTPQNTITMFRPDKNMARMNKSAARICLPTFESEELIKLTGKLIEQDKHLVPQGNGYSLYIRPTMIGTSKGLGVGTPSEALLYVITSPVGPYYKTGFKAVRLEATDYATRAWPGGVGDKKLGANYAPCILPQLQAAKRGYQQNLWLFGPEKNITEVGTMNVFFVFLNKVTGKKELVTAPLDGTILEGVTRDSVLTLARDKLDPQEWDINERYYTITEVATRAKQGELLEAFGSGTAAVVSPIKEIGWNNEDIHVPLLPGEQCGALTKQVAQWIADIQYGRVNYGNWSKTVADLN

Bat1ΔN16^WT [2] = molecular target: T2, Bat1ΔN16^WT (Saccharomyces cerevisiae, UniProt P38891, G333S); assay: as above; type: biochemical; conditions: reverse reaction; 2 mM KG, 5 mM NAD+, 50 μM PLP, 200 mM potassium phosphate pH 8.5, 30°C; apparent
T2 construct: gene BAT1; first 16 residues (mitochondrial-targeting signal) removed; N-terminal His-tag (pET53-dest, tag not reported cut); E. coli BL21(DE3); dimer
T2 sequence (P38891 17-393 G333S): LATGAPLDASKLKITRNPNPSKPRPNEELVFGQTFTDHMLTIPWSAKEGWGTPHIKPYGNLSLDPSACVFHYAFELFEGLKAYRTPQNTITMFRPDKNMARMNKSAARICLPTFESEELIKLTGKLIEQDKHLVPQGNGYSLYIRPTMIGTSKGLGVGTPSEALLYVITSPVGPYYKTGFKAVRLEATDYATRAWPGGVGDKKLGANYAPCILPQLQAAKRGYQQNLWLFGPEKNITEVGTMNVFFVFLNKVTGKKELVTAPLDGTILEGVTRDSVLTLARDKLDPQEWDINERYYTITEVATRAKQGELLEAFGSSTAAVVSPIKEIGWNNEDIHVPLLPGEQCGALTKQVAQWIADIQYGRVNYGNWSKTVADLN

purified protein [3] = substrate: CC(C)[C@H](N)C(=O)O; assay: purified protein; conditions: reverse reaction, 2 mM KG, 5 mM NAD+, 50 μM PLP, 200 mM potassium phosphate pH 8.5, 30°C, apparent
purified protein [4] = substrate: CC[C@H](C)[C@H](N)C(=O)O; assay: purified protein; conditions: reverse reaction, 2 mM KG, 5 mM NAD+, 50 μM PLP, 200 mM potassium phosphate pH 8.5, 30°C, apparent
purified protein [5] = substrate: CC[C@H](C)C(=O)C(=O)O; assay: purified protein; type: biochemical, Saccharomyces cerevisiae; conditions: forward reaction, 100 mM Glu, 50 μM PLP, 100 mM NH4Cl, 0.25 mM NADH, 200 mM potassium phosphate pH 8.0, 30°C, apparent
purified protein [6] = substrate: CC(C)C(=O)C(=O)O; assay: purified protein; type: biochemical, Saccharomyces cerevisiae; conditions: forward reaction, 100 mM Glu, 50 μM PLP, 100 mM NH4Cl, 0.25 mM NADH, 200 mM potassium phosphate pH 8.0, 30°C, apparent
purified protein [7] = substrate: CC(C)CC(=O)C(=O)O; assay: purified protein; type: biochemical, Saccharomyces cerevisiae; conditions: forward reaction, 100 mM Glu, 50 μM PLP, 100 mM NH4Cl, 0.25 mM NADH, 200 mM potassium phosphate pH 8.0, 30°C, apparent
purified protein [8] = substrate: CC(C)C[C@H](N)C(=O)O; assay: purified protein; conditions: reverse reaction, 2 mM KG, 5 mM NAD+, 50 μM PLP, 200 mM potassium phosphate pH 8.5, 30°C, apparent

Row | Molecule | Km (Bat1ΔN16^WT [1]) [mM] | Km (Bat1ΔN16^WT [2]) [mM] | Km (purified protein [3]) [µM] | kcat (purified protein [3]) [s⁻¹] | kcat/Km (purified protein [3]) [M⁻¹ s⁻¹] | Km (purified protein [4]) [µM] | kcat (purified protein [4]) [s⁻¹] | kcat/Km (purified protein [4]) [M⁻¹ s⁻¹] | Km (purified protein [5]) [µM] | kcat (purified protein [5]) [s⁻¹] | kcat/Km (purified protein [5]) [M⁻¹ s⁻¹] | Km (purified protein [6]) [µM] | kcat (purified protein [6]) [s⁻¹] | kcat/Km (purified protein [6]) [M⁻¹ s⁻¹] | Km (purified protein [7]) [µM] | kcat (purified protein [7]) [s⁻¹] | kcat/Km (purified protein [7]) [M⁻¹ s⁻¹] | Km (purified protein [8]) [µM] | kcat (purified protein [8]) [s⁻¹] | kcat/Km (purified protein [8]) [M⁻¹ s⁻¹]
1 | CC(C)C[C@H](N)C(=O)O [Leu] | 0.285 ± 0.0679 | 3.08 ± 1.42 |  |  |  |  |  |  |  |  |  |  |  |  |  |  |  |  |  | 
2 | B1 |  |  | 454 ± 123 | 3.37 | 7420 | 220 ± 102 | 3.74 | 17000 | 218 ± 111 | 4.73 ± 1.29 | 21700 | 298 ± 100 | 9.55 ± 1.92 | 32100 | 323 ± 101 | 15.4 ± 2.92 | 47700 |  |  | 
3 | B2 |  |  |  |  |  |  |  |  |  |  |  |  |  |  | 1570 ± 505 | 4.95 ± 0.945 | 3150 |  |  | 
4 | B3 |  |  | 13300 ± 3440 | 1.4 | 106 | 3400 ± 1140 | 1.8 | 529 | 308 ± 134 | 2.01 ± 0.282 | 6530 | 1730 ± 826 | 1.79 ± 0.521 | 1030 | 681 ± 189 | 5.42 ± 0.615 | 7960 | 3890 ± 1060 | 1.61 | 414
5 | B4 |  |  | 511 ± 111 | 2.71 | 5300 | 119 ± 38.9 | 2.61 | 21900 | 150 ± 59.4 | 5.48 ± 1.04 | 36500 | 180 ± 44.4 | 8.05 ± 1.02 | 44700 | 212 ± 61 | 11.6 ± 1.82 | 54700 | 189 ± 60 | 2.3 | 12200
